Laboratory results taken from US20200361992A1 (PROTAGONIST THERAPEUTICS, published 2020).
Where two headings read alike, the source gives them in different places. Starred links: 1 amine or outer side, 2 acyl side, 3 side chain; linkers in the order of their positions; H or OH if unused. Positions of bridges follow the written chain, without caps; N, C: chain ends. Non-standard residues stand in square brackets, D forms with d. Groups on a side chain read outwards from the residue. Primed or numbered codes have the meaning given here. No end group written: not given here. *: point of attachment. Npc″ = L-nipecotic acid, O=C([C@H]1CCCN([*:1])C1)[*:2]; PEG12 = NCCOCCOCCOCCOCCOCCOCCOCCOCCOCCOCCOCCOCCC(=O)O; γGlu = O=C(O)[C@H](CCC(=O)[*:2])N[*:1]; Palmitoyl = CCCCCCCCCCCCCCCC(=O)*; NMeF = CN[C@@H](Cc1ccccc1)C(=O)O; β3hF = N[C@H](CC(=O)O)Cc1ccccc1; Isovaleryl = CC(C)CC(=O)*; Npc = nipecotic acid

T1: human ferroportin (SLC40A1) fused in frame with the GFP protein, stably expressed in HEK293 cells (human, UniProt Q9NP59 1-571)
T1 sequence (looked up): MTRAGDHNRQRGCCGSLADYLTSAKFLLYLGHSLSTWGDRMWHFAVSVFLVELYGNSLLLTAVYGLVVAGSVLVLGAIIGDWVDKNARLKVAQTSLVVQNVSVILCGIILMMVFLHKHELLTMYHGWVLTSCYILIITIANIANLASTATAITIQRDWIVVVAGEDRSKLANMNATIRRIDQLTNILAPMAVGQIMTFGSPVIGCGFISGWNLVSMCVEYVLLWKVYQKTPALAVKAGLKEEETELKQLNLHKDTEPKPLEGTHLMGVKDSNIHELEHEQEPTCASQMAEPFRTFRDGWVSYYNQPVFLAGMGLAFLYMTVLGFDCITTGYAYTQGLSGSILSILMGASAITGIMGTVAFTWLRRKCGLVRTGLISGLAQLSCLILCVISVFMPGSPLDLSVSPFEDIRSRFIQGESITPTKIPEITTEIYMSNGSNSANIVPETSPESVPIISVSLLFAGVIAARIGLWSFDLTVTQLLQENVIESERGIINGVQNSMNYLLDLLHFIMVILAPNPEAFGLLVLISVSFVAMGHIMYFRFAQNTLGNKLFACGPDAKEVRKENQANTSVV


Experiments:
Assay in all cases: cell-based or functional assay
[1] = target: T1, human ferroportin (SLC40A1) fused in …
[2] = target: T1, human ferroportin (SLC40A1) fused in …; remark: listed apart in the source
[3] = target: T1, human ferroportin (SLC40A1) fused in …; remark: listed apart in the source
[4] = target: T1, human ferroportin (SLC40A1) fused in …; remark: listed apart in the source

Binder | FPN IC50 [2] [nM] | further results
Isovaleryl-DTHFPCI[dK]([PEG12-Palmitoyl])F[dR]C-NH2 (disulfide 6-11; not fully specified) [Compd ID 226] |  | FPN IC50 [1]: 23 nM
DTHFPCIKX (N-terminal isovaleric acid on each monomer; NMe-Phe 9; the two monomers linked through IDA-[(b-Ala)-Palm]; -NH2) [Compd ID 507] | 10 | 
DTHFPCIKFKPRSKGCK (N-terminal isovaleric acid; Lys[PEG11-Palm] 10; C-terminal amide; disulfide between the two Cys (6 and 16)) [Ref. Compd 1] |  | Potency EC50 [3]: 30 nM
DTHXPCIKXKKC (N-terminal isovaleric acid; D-Asp 1; Dpa 4; (D)Lys 8; bhPhe 9; Lys(Peg11-Palm) 10; (D)Lys 11; C-terminal amide; disulfide between the two Cys (6 and 12)) [Compd ID 169] |  | FPN IC50 [4]: 12 nM
DTHFPCIIFK (N-terminal isovaleric acid on each monomer; D-Lys 10; the two monomers linked through IDA-[(b-Ala)-Palm]; -NH2) [Compd ID 509] | 433 | 
H-DTHFPICIF-NH2 [Mini-Hepcidin 1-9] |  | Potency EC50 [3]: 712 nM
Isovaleryl-DTHFPCI[dK]([PEG12-Palmitoyl])FKC-NH2 (disulfide 6-11; SMILES CCCCCCCCCCCCCCCC(=O)NCCOCCOCCOCCOCCOCCOCCOCCOCCOCCOCCOCCOCCC(=O)NCCCC[C@H]1NC(=O)[C@H]([C@@H](C)CC)NC(=O)[C@@H](NC(=O)[C@@H]2CCCN2C(=O)[C@H](Cc2ccccc2)NC(=O)[C@H](Cc2c[nH]cn2)NC(=O)[C@@H](NC(=O)[C@H](CC(=O)O)NC(=O)CC(C)C)[C@@H](C)O)CSSC[C@@H](C(N)=O)NC(=O)[C@H](CCCCN)NC(=O)[C@H](Cc2ccccc2)NC1=O) [Compd ID 224] |  | FPN IC50 [1]: 33 nM
DTHFPCIKF (N-terminal isovaleric acid on each monomer; D-Lys 8; the two monomers linked through Lys[isoGlu-Palm]-NH2) [Compd ID 503] | 21 | 
DTHXPCIKXKCK (N-terminal isovaleric acid; Dpa 4; (D)Lys 8; bhPhe 9; Lys(Peg11-Palm) 10; (D)Lys 12; C-terminal amide; disulfide between the two Cys (6 and 11)) [Compd ID 170] |  | FPN IC50 [4]: 10 nM
FICIPFHTD (all residues D-amino acids (retro inverse); free N-terminus (Hy-); C-terminal amide) [RI-Mini Hepcidin] |  | Potency EC50 (nM) [3]: > 10000 nM
Isovaleryl-DTHFPCI[dK]([PEG12-Palmitoyl])F[dK]C-NH2 (disulfide 6-11; SMILES CCCCCCCCCCCCCCCC(=O)NCCOCCOCCOCCOCCOCCOCCOCCOCCOCCOCCOCCOCCC(=O)NCCCC[C@H]1NC(=O)[C@H]([C@@H](C)CC)NC(=O)[C@@H](NC(=O)[C@@H]2CCCN2C(=O)[C@H](Cc2ccccc2)NC(=O)[C@H](Cc2c[nH]cn2)NC(=O)[C@@H](NC(=O)[C@H](CC(=O)O)NC(=O)CC(C)C)[C@@H](C)O)CSSC[C@@H](C(N)=O)NC(=O)[C@@H](CCCCN)NC(=O)[C@H](Cc2ccccc2)NC1=O) [Compd ID 225] |  | FPN IC50 [1]: 26 nM
DTHFPCIKF (N-terminal isovaleric acid on each monomer; the two monomers linked through [D-Lys]-Lys[isoGlu-Palm]-NH2) [Compd ID 502] | 33 | 
Isovaleryl-DTH[β3hF][Npc]CI[dK]FK([PEG12-Palmitoyl])C[dK]-NH2 (disulfide 6-11) [Compd ID 172] |  | FPN IC50 [4]: 39 nM
DTHXPCIKXKKC (N-terminal isovaleric acid; Dpa 4; (D)Lys 8; bhPhe 9; Lys(Peg11-Palm) 10; dLys_Ac 11; C-terminal amide; disulfide between the two Cys (6 and 12)) [Compd ID 175] |  | FPN IC50 [4]: 5 nM
DTHFPCIKX (N-terminal isovaleric acid on each monomer; a-MePhe 9; the two monomers linked through IDA-[(b-Ala)-Palm]; -NH2) [Compd ID 508] | 9 | 
Isovaleryl-DTHFPCIK([γGlu-Palmitoyl])FKC-NH2 (disulfide 6-11; SMILES CCCCCCCCCCCCCCCC(=O)N[C@@H](CCC(=O)NCCCC[C@@H]1NC(=O)[C@H]([C@@H](C)CC)NC(=O)[C@@H](NC(=O)[C@@H]2CCCN2C(=O)[C@H](Cc2ccccc2)NC(=O)[C@H](Cc2c[nH]cn2)NC(=O)[C@@H](NC(=O)[C@H](CC(=O)O)NC(=O)CC(C)C)[C@@H](C)O)CSSC[C@@H](C(N)=O)NC(=O)[C@H](CCCCN)NC(=O)[C@H](Cc2ccccc2)NC1=O)C(=O)O) [Compd ID 227] |  | FPN IC50 [1]: 114 nM
DTHFPCIKF (N-terminal isovaleric acid on each monomer; the two monomers linked through K-Lys[isoGlu-Palm]-NH2) [Compd ID 501] | 28 | 
Isovaleryl-DTHFPCIK[Phe(4-OCH2CH2NH2)]K-{Lys(isoGlu-Palm)-NH2} (also: dimer: two monomers linked through K-Lys[isoGlu-Palm]-NH2) [Compd ID 504] | 20 | 
Isovaleryl-DTHFPCI[dK]F-{IDA(βAla-Palm)-NH2} (also: dimer: two monomers joined through IDA) [Compd ID 506] | 4 | 
DTHXPCIKFKCK (N-terminal isovaleric acid; bhPhe 4; (D)Lys 8; Lys(Peg11-Palm) 10; (D)Lys 12; C-terminal amide; disulfide between the two Cys (6 and 11)) [Compd ID 171] |  | FPN IC50 [4]: 47 nM

Further lines, with some results ahead:

FPN IC50 [2] [nM] | Binder | further results
5 | DTHFPCIKX (not fully specified; N-terminal isovaleric acid on each monomer; D-Lys 8; b-homoPhe 9; the two monomers linked through IDA-[(b-Ala)-Palm]; -NH2) [Compd ID 517] | 
4 | DTHFPCIKX (N-terminal isovaleric acid on each monomer; D-Lys 8; NMe-Phe 9; the two monomers linked through IDA-[(b-Ala)-Palm]; -NH2) [Compd ID 514] | 
8 | Isovaleryl-DTHF[Npc″]CI[dK][NMeF] (not fully specified (C-terminus); also: dimer: two monomers linked through IDA-[(b-Ala)-Palm]-NH2) [Compd ID 518] | 
6 | DTHFPCIKX (N-terminal isovaleric acid on each monomer; b-homoPhe 9; the two monomers linked through IDA-[(b-Ala)-Palm]; -NH2) [Compd ID 516] | 
26 | DTHXPCIKX (N-terminal isovaleric acid on each monomer; BIP 4; D-Lys 8; NMe-Phe 9; the two monomers linked through IDA-[(b-Ala)-Palm]; -NH2) [Compd ID 515] | 
